A short description of the data set: label from the status in PepcDB records.
Regarding “MNSLQILSFVGFTLLVAVITWWKVRKTDTGSQQGYFLAGRSLKAPVIAASLMLTNLSTEQLVGLSGQAYKSGMSVMGWEVTSAVTLIFLALIFLPRYLKRGIATIPDFLEERYDKTTRIIIDFCFLIATGVCFLPIVLYSGALALNSLFHVGESLQISHGAAIWLLVILLGLAGILYAVIGGLRAMAVADSINGIGLVIGGLMVPVFGLIAMGKGSFMQGIEQLTTVHAEKLNSIGGPTDPLPIGAAFTGLILVNTFYWCTNQGIVQRTLASKSLAEGQKGALLTAVLKMLDPLVLVLPGLIAFHLYQDLPKADMAYPTLVNNVLPVPMVGFFGAVLFGAVISTFNGFLNSASTLFSMGIYRRIINQNAEPQQLVTVGRKFGFFIAIVSVLVAPWIANAPQGLYSWMKQLNGIYNVPLVTIIIMGFFFPRIPALAAKVAMGIGIISYITINYLVKFDFHFLYVLACTFCINVVVMLVIGFIKPRATPFTFKDAFAVDMKPWKNVKIASIGILFAMIGVYAGLAEFGGYGTRWLAMISYFIAAVVIVYLIFDSWRHRHDPAVTFTPDGKDSL”, the protein production result is “failed”.

“MAEHPIQGLMETAMESIKEMVDVNTIVGDAVQAPDGTVIIPISKVTFGFAAGGGEFASCCSVDEKGEDSSDDSSKPEIKFPFAGGSGAGVSINPVAFMVVGQGQIKLLPVNINSSLEKILDLIPEIIEKTKDSVKKNLKVKKEIKPGNGESCAKSSKEDENELEHHHHHH”: the protein production result is “not failed”.

For the sequence “MKKNLFYLFALICSMSLFTACSDDDEAPGNSGVVGEVVGDYKGLMDVYYEPNVEIAKGMQQKITIKKSSDTSIGLELKNFVITVGGAPITIGDLAIDNCPLKVEGDKYSFTGNADLDLVVGKCAVSVEGAINGEDIELIIKVNVNNDLMKVRVEYKGKKMTGNESSEALIKEFKFDSDIIAEQPVINEDKTITFKVAETATDDDLKALKPIITISENATVTPESGVTQDFSGNKVVIYKVTSEDGTTVTEYKVSARKSSDALITSFVFENNPIVAEQPVINEDNTITFKVKASATADDLKALVPTITYSHKATIAPESGVAQDFSDNKKVIYTVTSEDGTVIKEYQVFISGTEDVYDFEKWLPGVEGQEPENTFYEAEGWASSNTGAHFLKGFNLTDSYVIMQTDDSHSGTAAAKIQSIDTKGQDLGIAKAPKVTTGSLFLGKFKTDIFNTLNSTKFGIPCKEKPISLRGWYKYTPGDVYYIVNTKPYKEHCHEAVVDETKVDEFMISVVLYETTAYDEIGWSDCLTGTDEEEKNIYTSSRIAAIGQLIGGAQTDWKKFELPLEWKKQYDTNKKYRMTIACSSSKDGDKFWGAPGSTLIVDDFELIKE”, the protein production entry is reported as “failed”.

“MILPWLILIPFIGGLLCWLGERFGSTLPRWIALLTMTLELALGLWLWATGNFGYAPVPGADPTWALEFHHPWITRFGIDVHLALDGLSLLMILLTGLLGVLSVLCSWKEIQRKVGFFHLNLMWILGGVVGVFLAIDLFMFFFFWEMMLVPMYFLIALWGHSSSDGKKTRIYAATKFFIFTQASGLIMLVAILGLVLVHFNQTGVITFAYADLLKTKLAPGTEYILMLGFFIAFAVKLPVVPLHSWLPDAHAQAPTAGSVDLAGILLKTAAYGLLRFALPLFPNASAEFAPIAMALGLVGIFYGAFLAFAQTDIKRLIAFSSVSHMGFVLIGIYSGSQQALQGVLIQMIAHGLSAAALFILSGQLYERLHTRDMREMGGLWSRIAYIPAISLFFAAASLGLPGTGNFVGEFLILLGSFASAPWITAIATSGLVFGSVYSLIMIHRAYFGPAKSDEVLKGMDGREMIMVLGLAVLLVVLGVFPQPFLDTSAATMHGVQQWLGTAFTQLASAR”: the protein production entry was “not failed”.

As for “KSAVTAQSILEKADEIRFPQDSFQVNVAIRTAAPDHAEDLYRYQVLSKGNENSIVMITEPASERGQAILMKGRDLWVFMPSVSQPIRLSLSQRLTGQVANGDIARANFTGDYHPQLLRNESIDDEDYYVLELTGIDRSVTYQKVLLWVNQSNFRPYKAEFYSVSGRLLKTSRYENFDNILGEMRPTRIIMEDALKSGEVSVLDYSDMKLRDLPDKIFTKDYLKRLE”, the protein production entry is recorded as “not failed”.

For “MTRTTAVGFDRVTKGYGDVRAVDGLTLALHPGETVALLGPNGAGKSTTLDLLLGLRRPDAGTVHVFGGEPREAVVAGRVGAMLQSGGLMDEVTVAELVRLGCALHPRAYPAADVLARAGLTKIADRRVDKLSGGQAQRVRFALATAGDSDLIVLDEPTTGMDVTARQAFWATMREQADQGRTVLFATHYLEEADAIADRVLVLHRGRLLADGTAAEIKARAGTRRISFDLDGGPDASPDASPDGSRNGTVDEATLRALPHLTALDVSGRTVRIQSADADATVYALYGLGLYPRNLEVAGLGLEQAFVALTAAEEAKQP”, the protein production entry is “failed”.

Turning to “MRRVFGAKKNTEPPPSIQDASDRINKRGDSVEDKIKKLDVELCKYKEQLKKTRPGPAQEAVKARAMRVLKQKKMYEGQRDMLYNQTFNLDQVSFAAEGLKDAQQTMTALKSANKELKGMMKTVKIQDIDNLQDEMMDLMDVSSEIQESLGRSYNIPDGLDEDDLMGELDALEADMGNETEADGMPSYLQPDTETDYDSELNLPAAPTGHNGAPHGRAQVNF”, the protein production entry was “failed”.

As for “MPKSPHKLFKANSFWKENNLILREIKHFRKIAILAVIFSFLAASFEGVSIGFLLSFLQKLTSPNDPIQTGISWVDMILAADAWPIPPIYRISLLILLSTWMRATFNYFGGVYTESAQLNLADRLHKQIFEQLQALRLSYFAQTRSGELINTITTEIERIKQGFSGLAFVLTRIMTVCVYFVVMFSISWQLSIISVLIFLLLAVGLSTLNKRVRETSFGISHANAQFTAVAVEFINGIRTIQAFGTQEFERQRFYKASTNQLNAAIKVVLAWTLVKPIAEGIATTVLISLIVISFATFTLPVASLLTFFFVLVRVIPNIQDINGTVAFLSTLQGSSENIKNILQTNNKPYLKNGKLHFQGLKRSIDLVSVDFGYTADNLVLNNITLTIERGKTTALVGASGAGKTTLADLIPRFYDPTEGQILVDGLDVQYFEINSLRRKMAVVSQDTFIFNTSIRDNIAYGTSGASEAEIREVARLANALQFIEEMPEGFDTKLGDRGVRLSGGQRQRIAIARALLRDPEILILDEATSALDSVSERLIQESIEKLSVGRTVIAIAHRLSTIAKADKVVVMEQGRIVEQGNYQELLEQRGKLWKYHQMQHESGQTNS”, the protein production result is given as “failed”.

On to “MSFKNDHKYQWKDMQGKDFLLPFIYLIGNFCLSIVILTIMIGINETQGKNNANFNANFSGTPGILMEMIAFIIIFALWILFHRHSFRQSWKQGLQNIKQHWKLIVITFIVIIVFKEIYPYLVNAFAPEHWKFEETQNDKMVEEMFATPVSTILAFFSIVIIAPMTEEFLFRHLIIGELGKKLNFYVMSVISIIVFASLHVTEAKSPLEIVMYLAIAVGIVYVYMKSQRSLAVAIALHALNNLLAYIFMIIM”, for which the protein production entry is on record as “failed”.

Turning to “MVTGIVFHEEYLKHEQSPTHPERRERLAYTMDQLREEGIFESERIVLLEPFKASLEDVLEVHTEEYVRFLEMESKKGGIIDFDTNIPVGVFDRALLAAGGAIRAAQAVLNKECENAFAMIRPPGHHAKPYIGAGFCYLNNMAIMVKWLLKQGFERIAILDWDAHHGDGTQEIFYNDDRVLFISTHQMPLYPGTGYPEECGTGKGEGYTVNIPLPPGTGDEGYMMVIDEIIEPVVNEFKPQFIAISAGQDNHFTDPITSLALTARGYAEMMRRAVAMAEKHCDGRLVAVLEGGYSVEGALPYTNLGIIAAMAGFDLSAIREPENYLPELLWRKRDSALVKLKHNIEDVKRVHSKYWKCFK”, the protein production entry was “failed”.

With “MAEPKQSSLSEVKTNVIGSRKEEKESMFHGKETHGRSEDIDEKTRVDDVKGPGVLGRMMEEMEAIVDAVTPNKSSDK”, the protein production entry is listed as “failed”.

With “LADVKHAQSQALFKEHMLETIFNAIPDLFFLMEVDGMIVDYHTGDQKNLYVAPHQFIGKRMTDLLPQEVVSKFQTHVDKILQQEGMITFEYELTMPHGLVHFEARMSYLPEYNQIVLIIRDIS”, the protein production result is given as “failed”.

Take “MDTTKTIAALFDFDGVIMDTETQYTVFWDEQGRKYLNEEDFGRRIKGQTLTQIYEKYFSDLPEAQQEITAGLNIYEKSMSYEYIPGVEAFIADLRKHGAKIAVVTSSNEEKMQNVYNAHPEFKGMVDRILTGEMFARSKPAPDCFLLGMEIFGATPENSYVFEDSFHGLQAGMTSGATVIGLATTNTREAITGKAHYIIDDFSEMTFEHLLALHR”: the protein production entry was “failed”.
